Laboratory results taken from the nanobody polyreactivity screen of Harvey et al. (2022).

Test: yeast display, Sf9 membrane polyspecificity reagent, FACS + sequencing; frameworks hold sequencing errors
How it was run: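 In a synthetic yeast display library (Saccharomyces cerevisiae BJ5465), nanobody expression was induced with galactose for 36–48 hours. FACS gates were set low and high (top ~1%) using anti-HA fluorescence for expression and streptavidin fluorescence for binding of the Sf9 membrane reagent. Each polyreactivity label is drawn from the gate of origin.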

Row | Sequence | polyreactivity (PSR sort gate)
1 | QVQLVESGGGLVQAGGSLRLSCAASGFTFWSYAMGWYRQAPGKERELVAAISRNGGRTYYADSVKGRFTISRDNAKNTVYVQMNSLKPEDTAVYYCATRARNRYTEMDYWGQGTQVTVSS | high polyreactivity
2 | QVQLVESGGGLVQAGGSLRLSCAASGRTFVLNAMGWYRQAPGKERELVAAITLGGGSTYADSVKGRLTISRDNAKNTVYLQMNSLKPEDTEVYYCNKASGVFYGHLDYWGQGTQVTVSS | low polyreactivity
3 | QVQLVESGGGLVQAGGSLRLSCAASGITFYLYAMGWYRQAPGKERELVAAISSSGGSTYYADSVKGRFTISRDNAKNTVYLQMNSLKPEDTAVYYCNASRRTVPYRYDYWGQGTQVTVSS | high polyreactivity
4 | QVQLVESGGGLVQAGGSLRLSCAASGRTFYYYTMGWYRQAPGKERELVAANTWNGGSTYYADSVKGRFTISRDNAKNTVYLQMNSLKPEDPAVYYCNARWTWRYDYWGQGTQVTVSS | high polyreactivity
5 | QVQLVESGGGLVQAGGSLRLSCAASGLTFFRYARGWYRQAPGKERELVATITGRGGSTYYADSVKGRFTISRDNAKNTVYLQMNSLKPEDTAVYYCAAYYSRFRYLHRDYWGQGTQVTVSS | high polyreactivity
6 | QVQLVESGGRLVQEGRSLRLSCAASGSIFSRYAMGWYRQAPRKERELVAAITWSGGSTYYADSVKGRFTISRDNAKNNVYLQMNSLKPDDTAVYYCAAVGYAPYNHRYDSWGQGTQVTVSS | low polyreactivity
7 | QVQLVESGGRLVQAGGSLRLSCAASGFTYQGNAMGWYRQAPGKERVLVAAISRGGSTYYADSVKGRFTISRDNAKNTVYLQMNRLKPEDTAVYYGAAKPSVDLDYWGQGTQVTVSS | high polyreactivity
8 | QVQLVESGGGLVQAGGSLRLSCAASGSTFKYYAMGWYRQATGKERELLAAITWRGGSTYYADSVKGRFTISRDNAKNSVYLLMKSLKPEDTAVYYCARQRYYGLRTLMEHWGQGTQVTVSS | high polyreactivity
9 | QVQLVESGGGLVQAGGSLRLSCAASGITFYIYAMGWYRQAPGKEREFVAAISDDGSTHYADSVKGRFTISRDNAKNTVYLQLNSLKPEDTAVYYCNADYYWFFDFFDYDYWGQGTQVTVSS | low polyreactivity
10 | QVQLVESGGGLVQAGGSLRLSCAASGSIFGLYAMGWYRQAPGKERELVAAISSSGGTTYYADSVKGRFTISRDNEKNTVYLQMNSLKPEDTAVYYCATDYYDDVTIGYDYWGQGTQVTVSS | low polyreactivity
11 | QVQLVESGGGLVQAGGSLRLSCAASGRTFAYYVMGWYIQAPGTERELVAAISWSAGCTYYADSVKGRFTISRDNAKNTVYLQMNSLIPEDTAVDYCAADYRFRYEYWGQGTQVTVSS | low polyreactivity
12 | QVQLVDSGGGLVQAGGSLRLSCAASGRIFGRYAMGWSRQAPGKESELVASITYRGGGTYYADSVKGRFTISRDNAKNTVYLQMNSLKPEDTAVYYCNAYFAGVLRRNYRGQGTQVTVSS | high polyreactivity
13 | QVQLVESGGGLVQAGGSLRLSCAASGFTFYYYAMGWYRQAPGKESELVAAITWSGDITSYADSVKGRFTISRDNAKNTVYLQMNSLKPEDTAVYYCAAYVYVPGYNAAYDYWGQGTQVTVSS | low polyreactivity
14 | QVQLVESGGGLVQAGGSLRLSCAASGSTFYYYAMGWYRQAPGKVRELVATISWSGDSTYADSVKGRFTISRDNAKNTVYLQMNSLKPEDTAVYYCATSGDWWGFRYVYWGQGTQVTVSS | low polyreactivity
15 | QVQLVESGGGLVQAGGSLRLSCAASGRIFSKNAMGCYRQQPGKERELVAAISRSGGGTYYADSVKGRFTISRDTAKNTVYLQMNSLKPEDTAVYYCATRYGSWGQGTQVTVSS | high polyreactivity
16 | QVQLVESGGGLVQAGGSLRLSCAASGRTFFSYTMGWYRQAPGKEREFVAAITTSGGYTHYADSVKGRFTISRDNAKNTVYLQMNSLIPEDTAVYYCAAVGRYPYKGYNYWGQGTQVTVSS | high polyreactivity
17 | QVQLVESSGGLVQAGGRLRLSCAASGSTFRGNAMGWYRQAPGKERELVAAITGSGGRTYYADSVKGRFTISRDNAKNTVYLQMNSLKPEDTAVYYCAARTPNIGGIYGYWGQGTQVSVSS | high polyreactivity
18 | QVQLVESGGGLVQAGGSLRLSCAASGSIFVYYAMGWYRQAPGKERELVAAIDVSDGGTYYAESVKGRFTISRDNAKNTVYLQMNSLKPEVTAVYYCAADQGIDVPYIGYDYWGQGTQVTVSS | high polyreactivity
19 | QVQLVESGGGLVQAGGSLRLSCAASGYIFPTYAMGWYRQEPGKERELVAAISISGGDTYYADSVKGRFTISRDNAKNTVYLQMNSLKPEDTAVYYCAAVKYETYRYNYDYWGQGTQVTVSS | high polyreactivity
20 | QVQLVESGGGLVQAGGSLRLSSAASGSTFTGYTMGWYRQATGKERELVASIRTYYADSVKGRFTISRDNAKNTVYLQMNSLKPEDTAVYYCAADFPSATGGYDYWGQGTQVTVSS | low polyreactivity
21 | QVQLVESGGGLVQAGGSLRLSCAASGRIFTYYAMGWYRQAPGKERELVAAINFNSGSTYYADSVKGRFTISRDTAKNTVYLQMNSLKPEDTAVYYCAAVPRRGLPKSYYYWGQGTQVTVSS | high polyreactivity
22 | QVQLVESGGGLVLPGGSLRLSCAASGITFTYNAMGWYRQAPGQERELVAAISYSGGSTYYADSVKGRFTISRDNAKNTVYLQMNSLTPEDTAVYYCARRRLLYSGGKSGYYGYYYWGQGTQVNVSS | high polyreactivity

Row | Sequence | polyreactivity (PSR sort gate)
23 | QVHLVESGGGLVQAGGSLRLSCAASGITFNSNAMGWYRQAPGKERELVAAITVSGGNTYYADSVKGRFTISRDNAKNTVYLQMYSLKPEDTAVYYCNTASDVSWYVHYYYWRQGTQVTVSS | low polyreactivity
24 | QVQLVESGGGLVQAGGSLRLSCAASGRIHVYTMRWYRQAPGQERELVAAITWSGTSTNYADSVKGRFTLSRDNAKNTVYLKMNILKPEDTAVYYCAADISGVLSVSNVRGFDYWGQGTQVTVSS | low polyreactivity
25 | QVQLVESGGGLVQAGGSLRLSCAASGSIFLRNAMGWYRQAPGKERELVAAITSNGGRTYYADSVKGRFTISRDNAKNTVYLQMNSLKPEDTAVYYCARVTRLGGGDYDYWGQGTQVTVSS | high polyreactivity
26 | QVQLVESGGGLVQAGGSLRLSCAASGFIFGVYAMGWYRQAPGKERELVAAISGSGGTTYYADSVKGRFTISRDNAKNTVYLQMISLKPEDTAVYYCNAAYRVRYIVNYDYWGQGTQVTVSS | low polyreactivity
27 | QGQLVESGGGLVQAGGSLRLSCAASGLIFYKYAMGWYRQAPGKERVLVAAISSSGGSTYYGDSVKGRFTISRDTAKNTVYFQMNSLKPEDTADSSCAARTNRRGYHDWGQGTQVTVSS | high polyreactivity
28 | QVQLVESGGGLVQAGGSLRLSCASSGRIFSWYTMGWNRQAPGKVSELVPVITSGGTTKYADSEKGRFTISRDNAKNTVYLQMNSLKPEDTAVYYCNVAGRDYAVRWGSFDYWGQGTQVTVSS | low polyreactivity
29 | QVQLVESGGGLVQAGGSLRLSCAASGRTFSSYTMGWYRQAPGKERELVASITNNGGSTYYADSVKGRFTISRDNEKNTVYLQMNSLKPEDTAGYYCNANSRVGLQDKKPRDYDGYDSWGQGTQVTVSS | low polyreactivity
30 | QVQLVESGGGIVQSGGSLRLSFAASGSIVDWNAMGWYRQAPGKARELVASISSGGSTDYADSVKGRFTISRDNAKNTVYLQMNSLKPEDTAVYYCNADAYAYYPPRWYYGYDYWGQGTQVTVSS | low polyreactivity
31 | QVQLVESGGGLVQAGGSLRLSCAASGRTFRRYAMGWYRQAPGKERELVATITSNGGSTYYADSVKGRFTISRDNAKNTVYLQMNSLKPEDTAVYYCARDLTYYRSRYDYWGQGTQVTVSS | high polyreactivity
32 | QVHLVESGGCLVQARGSLRLSCAASGRTIQLYAMGWYRHPHGKVMELVAAITWSSGRTYYADSVKGRFTISRDNANNTVYLQMNRLKQEDTAVYYCNAPRGGRNTVYYWGQGTQVTVSS | high polyreactivity
33 | QVQLVESGRGLVQAGGSLRLSCAASGFTCRWYAIGLYRQAPGKERELVAAISRDGSTNYADSVKGRFTISRDNAKNTVYLQMNSLKPEDTSVYYCAKRYYRYPYSQGDYWGQGTQVTVSS | high polyreactivity
34 | QVQLVESGGGLVQAGGSLRLSCAASGSIFKTYAMGWYRQAPGKERELVAAISWRGGSTYYADSVKGRFTISRDNAKNTVYLEMNSLKPEDTAVYYCAAGRKFGTRTLWYRYGYWGQGTQVTVSS | high polyreactivity
35 | QVQLVESGGGLVQAGGSLRLSCAASGFTFDWYAMGWYRQAPGKERELVAAISSGGNTKYADSVKGRFTISRDNAKNTVYLQMNSLKPEDTAVYYCAARLYYSLSYYYWGQGTQVTVSS | high polyreactivity
36 | QVQLVESGGGLVQAGGSLRLSCAASGSPFRSYAMGWYRQAPGKERELVAAISISGGRTYYADSVKGRFTISRDNAKNTVYLQMNSLKPEDTAVYYCAADRRTDGHDYWGQGTQVTVSS | high polyreactivity
37 | QVQLVESGGGLVQAGGSLRLSCAASGFTFYYNAMGWYRQAPGKERELVASISSNGTSTYYADSVKGRFTISRDNAMYTVYLQMNSLKPEDTAGYYCAADDVCVYWSSTHNWARGDYWGQGSQVTVSS | low polyreactivity
38 | QVQLVESGGGLVQAGGILRLSCAASGRIFKYNAMGWYRQAPGKERELVAVITSGGSTYYADSVKGRFTISRDNAKNTVYLQMNSLKPEDTAVYYCAKKYYKVHKFDYCGQGTQVTVSS | low polyreactivity
39 | QVQLVESGGGLVQAGGSLRLSCAASGRIFANAMGWYRQAPGKERELVAAISTSGGRTYYADSVKGRFTISRDNAKNTVYLQMNSLKPEDTAVYYCAARPHTPPVTSGYNHWGQGTQVTVSS | high polyreactivity
40 | QLQLVESGGGLVQAGGSLRLSCAASGSIFFSYAMGWYRQAPGKERELVAAIDYSGGGTYYADSVKGRFTISRDNAKNTVYLQMNSLKPEDTAVYYCNSDTEVWADTFISYRALNYWGQGTQVTVSS | low polyreactivity
41 | QVQLVESGGGLDQAGGSLGLSCAPSGRTFFPYAMGWSRQAPGKEREFVAAITKTDDSTYYADSVKGRFTISRDKAKNTVYLPMNSLKPEDTAVYYCIAGDTQIRFYYWGQGTQVTVSS | low polyreactivity
42 | QVHLVESGGGLVQAGGSLRLSCAASGSTFSGYAMGWYRQAPGKERELVATITRRGGNTYYADSLKGRFTISRDNAKNTVYLQMNSLKPEDTAVYYCAKDGRVHSPYDYWGQGTQVTVSS | low polyreactivity
43 | QVQLVESGGGLVQAGGSLRLSCAASGSIFRYYAMGWYRQAPGKERELVAAISSRGGTTHYADSVKGRFTISRDNAKNTVYLQMNSLKPEDTAVYYCAADYYLATNPAPLAAGRGYWGQGTQVTVSS | high polyreactivity
